Drawing on PMC8754202 (Journal of Virology, 2021), this text covers Kd for two molecules.

Experiment [1] has as its target N-terminal peptidase domain of wild-type human ACE2 (residues Met1-Asp615) (human, UniProt Q9BYF1 18-615). The experiment in a line: SPR. (Surface plasmon resonance follows binding to a sensor surface in real time, without labels.)
Experiment [2] deals with N-terminal peptidase domain of human ACE2 [change] variant (residues Met1-Asp615) (human, UniProt Q9BYF1 18-615). The experiment in a line: SPR.

B1: HCoV-NL63 receptor-binding domain (residues Gln481-Ile616) (domain or fragment)
chain: QHTDINFTATASFGGSCYVCKPHQVNISLNGNTSVCVRTSHFSIRYIYNRVKSGSPGDSSWHIYLKSGTCPFSFSKLNNFQKFKTICFSTVEVPGSCNFPLEATWHYTSYTIVGALYVTWSEGNSITGVPYPVSGI
One may read the Kd as the equilibrium constant for the complex coming apart. With B1, the Kd in experiment [1] worked out at 575 nM; in experiment [2] it was 2610 nM.

B2: SARS-CoV receptor-binding domain (residues Arg306-Leu515) (domain or fragment)
chain: not shown
On to B2, for which, in experiment [1], the Kd was determined as 511 nM.
